These are literature values, as cited in paper PMC3022782.

This series addresses β sliding clamp rim (Escherichia coli) (UniProt P0A988).
Chain of UniProt P0A988 (P0A988 whole entry): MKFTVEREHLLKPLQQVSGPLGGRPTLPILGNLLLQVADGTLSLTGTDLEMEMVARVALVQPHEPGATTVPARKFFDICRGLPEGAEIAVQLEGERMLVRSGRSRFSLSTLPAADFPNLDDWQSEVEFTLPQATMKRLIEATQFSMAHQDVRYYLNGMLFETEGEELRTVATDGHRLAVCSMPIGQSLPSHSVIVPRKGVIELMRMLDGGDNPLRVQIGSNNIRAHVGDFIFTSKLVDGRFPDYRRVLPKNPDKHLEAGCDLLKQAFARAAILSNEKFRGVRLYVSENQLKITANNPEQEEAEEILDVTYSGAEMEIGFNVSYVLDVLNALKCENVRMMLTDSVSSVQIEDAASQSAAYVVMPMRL

One may read the Kd as the equilibrium constant for the complex coming apart. On to Pol IV (from UniProt Q47155), for which the Kd is 1 µM.
